From the nanobody polyreactivity screen of Harvey et al. (2022)

Test: yeast display, Sf9 membrane polyspecificity reagent, FACS + sequencing; frameworks hold sequencing errors
Summary of the method: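 Polyreactivity labels are assigned by the sorting gate from which each nanobody was recovered. The gates were low and high (top ~1%), set on anti-HA fluorescence for expression and streptavidin fluorescence for reagent binding. Before sorting, galactose-induced (36–48 hours) yeast display cells were stained for 1 hour at 4 °C with 10% biotinylated, detergent-solubilized Sf9 membrane reagent.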

Row | Sequence | polyreactivity (PSR sort gate)
1 | QVQLVESGGGLVQAGGSLRLSCAGSGATYERYAMGWSRPAPGKERALVAASNKRGGNTYYADSVKGRFTISRDNAKKTVYLQMNSLKPEDTAVYYCAADHLDRTEFPYYYWGQGTQVTVSS | high polyreactivity
2 | QVQLVESGGGLVQAGGSLRLSCAGSGHIFPYNAMGWYRQGPGKEREFVAAISFRGGSRYYADSEKGRFTISRDNAKNTVYLQMNSLKPEDTAVYYCAKRSYPWGQGTQVTVSS | low polyreactivity
3 | QVQLVESGGGLVQAGGSLRLSCAGSGIIFRGYDMGWYRQAPGKEMELVAAITWRGGSTYYADSVKGRFTISRDNAKNTVYLQMNSLKPEDTAVYYCAAVRKHSWFRHMDYWGQGTLVTVSS | high polyreactivity
4 | QVQLVESGGGLVQAGGSLRLSCAGSGLIFRIYAMGWYTQAPGKEREFVAAIRWRGGSTYYADSVKGRFTISRDNAKNTVYLQMNSLKPEDSAVYYCAVRYCPYRPRLDYWGQGTQVTVSS | high polyreactivity
5 | QVQLVESGGGLVQAGGSLRLSCAGSGRIFFWYVMGWYRQAPGKERELVAAISSGGRTYYADSVKGRFTISRDNAKNTVYLQMNSLKPEDTAVYYCAAVRRYLKAAYGYWGQGTQVTVSS | low polyreactivity
6 | QVQLVESGGGLVQAGGSLRLSCAGSGRIFRTYAMGWFRQAPGKEGEFVAGISRGGSTDYADSVKGRFTISRDNEKNTVYLQMNSLKPEDSAVYYCAAASLRYYSPRVRYPYYYWGQGTQVTVSS | high polyreactivity
7 | QVQLVESGGGLVQAGGSLRLSCAGSGRTFEINAMGWYRQAPGKERELVAAITVSGGSTYYADSVKGRFTISRDNAKNTVYLQMNSLKPEDTAVYYCAVEIVYGQGKEVNSWGQGTQVTVSS | low polyreactivity
8 | QVQLVESGGGLVQAGGSLRLSCAGSGRTFRTYTRGWYRQAPGKERELVAAISWSGSSTYYADSVKGRFTISRDNAKNTVYLQMNSLKPEDTAVYYCAARGLYDYGYWGQGTQVTVSS | high polyreactivity
9 | QVQLVESGGGLVQAGGSLRLSCAGSGSIFHPYAMGWYRQAPGKERELVAAISKSGGNTYYADSVKGRFTISRDNAKNTVYLQMNSLKPEATAVYYCAALDYWGQGTQVTVSS | low polyreactivity
10 | QVQLVESGGGLVQAGGSLRLSCAGSGSIFSNNAMGWYRQAPGKERELVAAISASGGSTYYADSVKGRFTISRDNAKNTVYLQMNSLKPEDTAVYYCAARGYGWGQGTQVTVSS | high polyreactivity
11 | QVQLVESGGGLVQAGGSLRLSCAGSGSSFAWNDMGWYRHAPGIERALVAAISTSDGSTYYADSVKGRFTISRDNAKNTVYLQMNSLNPEDTAVYYCAADVTRVFYGLYTGEYDYWGLGTQVTVSS | low polyreactivity
12 | QVQLVESGGGLVQAGGSLRLSCAGSGSTFKYYAMGWYRQAPGKARELVAAIRTSGGRTYYADSVKGRFTISRDNAKNTVYLPMNSLKPEDTAVYYCNASSTQFGQRYEYWGQGTQVTVSS | high polyreactivity
13 | QVQLVESGGGLVQAGGSLRLSCAGSGSTFRYNAMGWYRQAPGKERELVAAISQRGGSTYYADSVKGRFTISRDNANNTVYLQMNSLKPEDTAVYYCPGDYWGQGTQVTVSS | high polyreactivity
14 | QVQLVESGGGLVQAGGSLRLSCAGSGSTFYFYVMGWYRQAPGKDRELVAAITWSGGRTSYADSVKGRFTISRDNAKNTVYLQMNSLKPEDTAVYYCNTDGYPRLYIYDYWGQGTQVTVSS | low polyreactivity
15 | QVQLVESGGGLVQAGGSLRLSCAGSGSTILYYVMGWYRQAPGKARELVAAITGTGGRTYYADSVKGRFTISRDNAKNTVYLQMNSLKPEDTAVYYCAADGKFEYDYWGQGTQVTVSS | low polyreactivity
16 | QVQLVESGGGLVQAGGSLRLSCAHSGFIFSLYAMGWYIQAPGKERELVAAISRRGGNTYYADSVKGRFTISRDNGKNTVYLQMNSLKPVDTAVSYCNTGQRYGYDWGQGTQVTVSS | high polyreactivity
17 | QVQLVESGGGLVQAGGSLRLSCAHSGSISSRYAMGWYRQAPGKERELVARITRSGGSTYYADSVKGRFTISRDNAKNTVYLQMNRLKPEDTAVYYCNKRGTEIGYDYWGQGTQVTVLS | low polyreactivity
18 | QVQLVESGGGLVQAGGSLRLSCAPSGFIFYGYAMGWYRPAPGKERELVAAISRRGGSTYYADSVKGRFTISRDDAKNSVYLQMNSLKPEDTAVYYCAATYEVNYRKYGYWGQGTQVTVSS | high polyreactivity
19 | QVQLVESGGGLVQAGGSLRLSCAPSGFTFGDYAMGWYRQSPGTESELDAAISWSGGSTYYADSVKGRFTISRDNAKTTVYLQMNSLKPEDTAVYYCAAVDSATIEDDYWGQGTQVTVSS | high polyreactivity
20 | QVQLVESGGGLVQAGGSLRLSCAPSGFTFRYYGMGWYRQAPGKERELVAAITRTGGSTYYADSVKGRFTISRDNAKYTVYLQMNSLKPEDTAVYFCGAGGSYAYVYWGQGTQVTVSS | high polyreactivity
21 | QVQLVESGGGLVQAGGSLRLSCAPSGFTFSQYAMGWYRQAPGKEREFVAAISRSGGSTYYADSVKGRFTISRDNAKNTVYLQMNSLKPEDTAVYYCAAGLVATFSRRGRASYRYNYWGHGTQVTVSS | high polyreactivity

Row | Sequence | polyreactivity (PSR sort gate)
22 | QVQLVESGGGLVQAGGSLRLSCAPSGFTFTYYAMGWYRQAPGQERELVAAITQSGGSTFYADSVQGRFTISRDNAKNTVYLQMNSLKPEDTAVYYCAADIDLYYDYDYWGQGTQVTVSS | low polyreactivity
23 | QVQLVESGGGLVQAGGSLRLSCAPSGGIYLYYVMGWYRQAPGKERELVADISGDDSTNYADSVKGRFTISRDNAKNTVYLQMNSLKPEDTAVYYCAAVPGLFYLPYEYWGQGTQVTVSS | low polyreactivity
24 | QVQLVESGGGLVQAGGSLRLSCAPSGGTFTHNAMGWYRQAPGKEWELVAAISRSGGSTSYADSVKGRFTISRYNAMNTVYLQMNSLKPEDTAVYYCAALISRQRSYSRDYWGQGTQVTVSS | high polyreactivity
25 | QVQLVESGGGLVQAGGSLRLSCAPSGIIFAYYAKGWYRQAPVKERELVASISSGGTTKYADSVKGRFTISRDNAKNTVYLQMNSLKPEDTAVYYCAAEHRWRSWDMDYWGQGTQVTVSS | low polyreactivity
26 | QVQLVESGGGLVQAGGSLRLSCAPSGIIFHKYAMGWYRQAPGTDRELVAVFTGRGGSTYYADSVKGRFTISRDFAKNTVYLQMNSLKPEDTAVYYCAAVTKSWRGATWYDYWGQGTQVTVSS | high polyreactivity
27 | QVQLVESGGGLVQAGGSLRLSCAPSGIIFIRYAMGWYRQAPGKERELVAAISWRGGSTYYADSVKGRFTISRDNAKNTVYLQMNSLKPEDTAVYYCAAGYFSYRRYDYWGQGTQVTVSS | high polyreactivity
28 | QVQLVESGGGLVQAGGSLRLSCAPSGIILAYYAMGWYRQAPGKERELVAAISRSGGITYYADSVKGRFTISRDNAKNTVYLQMNSLKPEDTAVYYCARYSSRPYDYWGQGTQVTVSS | high polyreactivity
29 | QVQLVESGGGLVQAGGSLRLSCAPSGLIFYHYAMGWYRQAPGKERELVAGITRSGGSTYYADSVKGRFTISRDNAKNTVYLQMNSLKPEDTAVYYCAAKSLTTGKYGKYGYWGQGTQVTVSS | high polyreactivity
30 | QVQLVESGGGLVQAGGSLRLSCAPSGLIIWDYVMGWYRQAPGKERELVAAISRSGGRTYYADSVKGRFTISRDNAKNTVYLQMNSLKPEDTAVYYCAARVRFSYASRSGYWGQGTQVTVSS | high polyreactivity
31 | QVQLVESGGGLVQAGGSLRLSCAPSGLTIVTYAMGWYRQAPRKERELVAAISRSGGSTYYADSVKGRFTISRDNAKNTVYLQMNSLKPEDSAVYYCNAYSYVDLWAVYRYDYWGQGTQVTVSS | high polyreactivity
32 | QVQLVESGGGLVQAGGSLRLSCAPSGRIFGHYAMGWYRQATGKERELVAAINWRGGSTYYADSVNGRFTISRDNAKNTVYLQMNSLKPEDTAVYYCAADWTKARDSIYDYWGQGTQVTVSS | low polyreactivity
33 | QVQLVESGGGLVQAGGSLRLSCAPSGRIFGVYAMGWYRQAPGKERELVATIRSSGTRTNYADSVKGRFTISRDNAKNTVYLQMNSLKPEDTAVYYCAAGGRPYKLDFTRSDYWGQGTQVTVSS | low polyreactivity
34 | QVQLVESGGGLVQAGGSLRLSCAPSGRIFKYNAMGWYRQAPGKERELVAAITSSGASTYYADSVKGRFTISRDIAKHTVYLQMNSLKPVVTAVYYCAARARRKYDYWGQGTQVTLSS | high polyreactivity
35 | QVQLVESGGGLVQAGGSLRLSCAPSGRIFRYYAMGWYRPAPGKERELVAAISSRGASTYYADSVKGRYTISRDNAKNTVYLQMNRVKPEDTAVYYCGVRTYVYHWSFSSLPYVYWGQGTQVTVSS | high polyreactivity
36 | QVQLVESGGGLVQAGGSLRLSCAPSGRIIRPYAKGWYIQAPGKERELVAAISVSGVITYYADSVKGRFTISRDNAKNTVYLQMNSLKPEDTAVYYCATDYTRRRWGRLYDYWGQGTQVTVSS | low polyreactivity
37 | QVQLVESGGGLVQAGGSLRLSCAPSGRTFGSNTMGLYRQAPGKEIELVAGITFSSGSTYYADSVKGRFTISRDNANNTVYLQMNSLKPEDTAVYDCAVRNASKNRKYYYWGQGTQVTVSS | high polyreactivity
38 | QVQLVESGGGLVQAGGSLRLSCAPSGRTFSRNAMGWYRQAPGKERELVAAISQRGVSTYYADSVKGSFTISRDNAQNSVYLQMNSLKPEDSAVYYCNTRGTYRYDYWGQGTQGTVSS | low polyreactivity
39 | QVQLVESGGGLVQAGGSLRLSCAPSGRTFVDYDMGWYRQAPGKERELVADINSGGSTYYADSVKGRFTISRDNAKNTVYLQMNSLKPEDTAVYYCAARYTFDRWKFGYWGQGTQVTVSS | high polyreactivity
40 | QVQLVESGGGLVQAGGSLRLSCAPSGRTFWYNAMGWYRQAPGKERELVATITSGGRTSYADSVKGRFTISRDNAKNTVYLQMNSLKPEDTAVYYCAATTGWYGARYGYWGQGTQVTVSS | high polyreactivity
41 | QVQLVESGGGLVQAGGSLRLSCAPSGRTLIHYAMGWSRQAPGKEREFVATINIGGRTYADSVKGRFTISRDNAKTTVYLQMNSLKPEDSAVYYCDADHRYSARRSFPTLYDYWAQGTQVTVSS | low polyreactivity
